{"source": "paper PMC7020083", "data": [{"target": "hTNFR2-SCP3-Fc (human | ectromelia virus) (UniProt P20333)", "sequence (P20333 23-257 limits assumed)": "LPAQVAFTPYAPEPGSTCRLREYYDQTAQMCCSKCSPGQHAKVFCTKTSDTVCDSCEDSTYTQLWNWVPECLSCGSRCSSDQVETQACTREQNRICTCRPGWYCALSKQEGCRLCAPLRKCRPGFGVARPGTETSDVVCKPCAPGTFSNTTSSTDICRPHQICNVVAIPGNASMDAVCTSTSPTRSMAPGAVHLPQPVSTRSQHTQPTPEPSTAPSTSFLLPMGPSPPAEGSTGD", "experiment": "SPR; […], single-cycle; 1:1 Langmuir fit", "units": {"Kd": "nM", "koff": "s⁻¹", "kon": "M⁻¹ s⁻¹"}, "values": [{"molecule": "human CCL25 (from UniProt O15444 24-150) (ligand)", "Kd": 6.75, "koff": 0.00374, "kon": 554000}, {"molecule": "human CXCL12 (from UniProt P48061 22-93) (ligand)", "Kd": 49.8, "koff": 0.00825, "kon": 166000}, {"molecule": "human CXCL13 (ligand) VLEVYYTSLRCRCVQESSVFIPRRFIDRIQILPRGNGCPRKEIIVWKKNKSIVCVDPQAEWIQRMMEVLRKRSSSTLPVPVFKRKIP", "Kd": 21.4, "koff": 0.00155, "kon": 72000}]}]}
